Measured values from US20140187491A1 (Bayer, published 2014).
Positions count from the first letter of the chain named. Read-outs that look alike come from different tables or passages of the source. Ends that are not written are not given here.

B1: scR-Fc 17 (Fc fusion)
chain: QLYSALANKCCHVGCTKRSLARFCGGGSGGGSGSWMEEVIKLCGRELVRAQIAICGMSTWSGSGSGSPTCPTCHKCPVPELLGGPSVFIFPPKPKDILLISQNAKVTCVVVDVSEEEPDVQFSWFVNNVEVHTAQTQPREEQYNSTFRVVSALPIQHQDWMSGKEFKCKVNNKALPSPIEKTISKPKGLVRKPQVYVMGPPTEQLTEQTVSLTCLTSGFLPNDIGVEWTSNGHIEKNYKNTEPVMDSDGSFFMYSKLNVERSRWDSRAPFVCSVVHEGLHNHHVEKSISRPPGK
B2: scR10 (ligand)
chain: EQKLISEEDLQLYSALANKCCHVGCTKRSLARFCGGGSGGGSGGGSGGSWMEEVIKLCGRELVRAQIAICGMSTWS
B3: scR-Fc 10 (Fc fusion)
chain: QLYSALANKCCHVGCTKRSLARFCGGGSGGGSGSWMEEVIKLCGRELVRAQIAICGMSTWSGGSGGSGGSPTCPTCHKCPVPELLGGPSVFIFPPKPKDILLISQNAKVTCVVVDVSEEEPDVQFSWFVNNVEVHTAQTQPREEQYNSTFRVVSALPIQHQDWMSGKEFKCKVNNKALPSPIEKTISKPKGLVRKPQVYVMGPPTEQLTEQTVSLTCLTSGFLPNDIGVEWTSNGHIEKNYKNTEPVMDSDGSFFMYSKLNVERSRWDSRAPFVCSVVHEGLHNHHVEKSISRPPGKHHHHHH
B4: scR7 (ligand)
chain: EQKLISEEDLQLYSALANKCCHVGCTKRSLARFCGGGSGGSWMEEVIKLCGRELVRAQIAICGMSTWS
B5: scR15 (ligand)
chain: EQKLISEEDLDVLAGLSSSCCKWGCSKSEISSLCGGGSGGGSGRAAPYGVRLCGREFIRAVIFTCGGSRW
B6: scR-Var2 (ligand)
chain: GCGSGGQLYSALANKCCHVGCTKRSLARFCGGGSGGGSGSWMEEVIKLCGRELVRAQIAICGMSTWS
B7: human Relaxin 3 (ligand)
chain 1: DVLAGLSSSCCKWGCSKSEISSLC
chain 2: RAAPYGVRLCGREFIRAVIFTCGGSRW
B8: scR-Var1 (ligand)
chain: QLYSALANKCCHVGCTKRSLARFCGGGSGGGSGSWMEEVIKLCGRELVRAQIAICGMSTWSGGSGCG
B9: scR14 (ligand)
chain: DVLAGLSSSCCKWGCSKSEISSLCGGGSGGGSGRAAPYGVRLCGREFIRAVIFTCGGSRW
modifications: ends and bridges not checked; cysteine pairing not given here
B10: scR8 (ligand)
chain: EQKLISEEDLQLYSALANKCCHVGCTKRSLARFCGGGSGGGSGGGSSWMEEVIKLCGRELVRAQIAICGMSTWS
B11: scR-Fc 11 (Fc fusion)
chain: HHHHHHPTCPTCHKCPVPELLGGPSVFIFPPKPKDILLISQNAKVTCVVVDVSEEEPDVQFSWFVNNVEVHTAQTQPREEQYNSTFRVVSALPIQHQDWMSGKEFKCKVNNKALPSPIEKTISKPKGLVRKPQVYVMGPPTEQLTEQTVSLTCLTSGFLPNDIGVEWTSNGHIEKNYKNTEPVMDSDGSFFMYSKLNVERSRWDSRAPFVCSVVHEGLHNHHVEKSISRPPGKGGSPQLYSALANKCCHVGCTKRSLARFCGGGSGGGSGSWMEEVIKLCGRELVRAQIAICGMSTWS
B12: scR11 (ligand)
chain: QLYSALANKCCHVGCTKRSLARFCGGGSGCGGSGSWMEEVIKLCGRELVRAQIAICGMSTWS
B13: scR12 (ligand)
chain: B12 chain with C30K
B14: scR5 (ligand)
chain: EQKLISEEDLQLYSALANKCCHVGCTKRSLARFCGGGSGGGSGGGSWMEEVIKLCGRELVRAQIAICGMSTWSYPYDVPDYAHHHHHH
B15: scR17 (ligand)
chain: EQKLISEEDLDVLAGLSSSCCKWGCSKSEISSLCGGGSGGGSGSWMEEVIKLCGRELVRAQIAICGMSTWS
B16: scR-Fc 9 (Fc fusion)
chain: QLYSALANKCCHVGCTKRSLARFCGGGSGGGSGSWMEEVIKLCGRELVRAQIAICGMSTWSGGSGGSPTCPTCHKCPVPELLGGPSVFIFPPKPKDILLISQNAKVTCVVVDVSEEEPDVQFSWFVNNVEVHTAQTQPREEQYNSTFRVVSALPIQHQDWMSGKEFKCKVNNKALPSPIEKTISKPKGLVRKPQVYVMGPPTEQLTEQTVSLTCLTSGFLPNDIGVEWTSNGHIEKNYKNTEPVMDSDGSFFMYSKLNVERSRWDSRAPFVCSVVHEGLHNHHVEKSISRPPGKHHHHHH
B17: scR4 (ligand)
chain: EQKLISEEDLQLYSALANKCCHVGCTKRSLARFCGGGSGGGSGSWMEEVIKLCGRELVRAQIAICGMSTWSYPYDVPDYAHHHHHH
B18: human Relaxin 2 (ligand)
chain 1: QLYSALANKCCHVGCTKRSLARFC
chain 2: SWMEEVIKLCGRELVRAQIAICGMSTWS
B19: scR3 (ligand)
chain: EQKLISEEDLQLYSALANKCCHVGCTKRSLARFCGGGSGGGSWMEEVIKLCGRELVRAQIAICGMSTWSYPYDVPDYAHHHHHH
B20: scR-Fc 12 (Fc fusion)
chain: HHHHHHPTCPTCHKCPVPELLGGPSVFIFPPKPKDILLISQNAKVTCVVVDVSEEEPDVQFSWFVNNVEVHTAQTQPREEQYNSTFRVVSALPIQHQDWMSGKEFKCKVNNKALPSPIEKTISKPKGLVRKPQVYVMGPPTEQLTEQTVSLTCLTSGFLPNDIGVEWTSNGHIEKNYKNTEPVMDSDGSFFMYSKLNVERSRWDSRAPFVCSVVHEGLHNHHVEKSISRPPGKGGSGGSPQLYSALANKCCHVGCTKRSLARFCGGGSGGGSGSWMEEVIKLCGRELVRAQIAICGMSTWS
B21: scR9 (ligand)
chain: EQKLISEEDLQLYSALANKCCHVGCTKRSLARFCGGGSGGGSGGGSGSWMEEVIKLCGRELVRAQIAICGMSTWS
B22: scR-Fc 8 (Fc fusion)
chain: QLYSALANKCCHVGCTKRSLARFCGGGSGGGSGSWMEEVIKLCGRELVRAQIAICGMSTWSGGSPTCPTCHKCPVPELLGGPSVFIFPPKPKDILLISQNAKVTCVVVDVSEEEPDVQFSWFVNNVEVHTAQTQPREEQYNSTFRVVSALPIQHQDWMSGKEFKCKVNNKALPSPIEKTISKPKGLVRKPQVYVMGPPTEQLTEQTVSLTCLTSGFLPNDIGVEWTSNGHIEKNYKNTEPVMDSDGSFFMYSKLNVERSRWDSRAPFVCSVVHEGLHNHHVEKSISRPPGKHHHHHH
B23: scR-Fc 13 (Fc fusion)
chain: HHHHHHPTCPTCHKCPVPELLGGPSVFIFPPKPKDILLISQNAKVTCVVVDVSEEEPDVQFSWFVNNVEVHTAQTQPREEQYNSTFRVVSALPIQHQDWMSGKEFKCKVNNKALPSPIEKTISKPKGLVRKPQVYVMGPPTEQLTEQTVSLTCLTSGFLPNDIGVEWTSNGHIEKNYKNTEPVMDSDGSFFMYSKLNVERSRWDSRAPFVCSVVHEGLHNHHVEKSISRPPGKGGSGGSGGSPQLYSALANKCCHVGCTKRSLARFCGGGSGGGSGSWMEEVIKLCGRELVRAQIAICGMSTWS

Experiments:
[1] = target: T1, human LGR7/RXFP1 receptor (human, UniProt Q9HBX9 1-757); assay: cell-based or functional assay
T1 sequence (looked up): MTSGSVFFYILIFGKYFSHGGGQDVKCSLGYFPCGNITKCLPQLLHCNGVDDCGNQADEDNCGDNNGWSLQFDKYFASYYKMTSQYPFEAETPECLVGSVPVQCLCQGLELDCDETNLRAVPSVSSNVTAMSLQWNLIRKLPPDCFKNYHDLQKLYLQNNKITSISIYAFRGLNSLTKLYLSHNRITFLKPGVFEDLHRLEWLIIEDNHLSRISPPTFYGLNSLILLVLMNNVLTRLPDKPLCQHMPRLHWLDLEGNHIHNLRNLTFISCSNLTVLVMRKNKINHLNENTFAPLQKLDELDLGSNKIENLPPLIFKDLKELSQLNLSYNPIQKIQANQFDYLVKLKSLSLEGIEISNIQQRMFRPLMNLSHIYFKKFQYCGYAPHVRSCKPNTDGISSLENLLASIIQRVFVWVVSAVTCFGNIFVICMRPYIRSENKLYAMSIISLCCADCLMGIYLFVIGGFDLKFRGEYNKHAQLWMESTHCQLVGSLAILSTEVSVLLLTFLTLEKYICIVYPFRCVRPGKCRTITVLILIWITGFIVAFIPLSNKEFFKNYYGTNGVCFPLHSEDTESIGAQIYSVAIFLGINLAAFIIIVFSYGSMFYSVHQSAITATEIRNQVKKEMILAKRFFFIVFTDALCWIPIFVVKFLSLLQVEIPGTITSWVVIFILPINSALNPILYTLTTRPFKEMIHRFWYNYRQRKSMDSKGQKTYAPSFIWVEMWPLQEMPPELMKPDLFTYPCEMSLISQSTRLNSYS

[2] = target: T1, human LGR7/RXFP1 receptor; assay: cell-based or functional assay; remark: listed apart in the source

Row | Binder | EC50 (M), CRE-luciferase reporter in CHO-CRE-LGR7 cells [1] | EC50 (M), CRE-luciferase reporter in CHO-CRE-LGR7 cells [2]
1 | B1 | 2.5e-09 M | –
2 | B2 | – | 4.4e-08 M
3 | B3 | 4.8e-09 M | –
4 | B4 | – | 5.3e-08 M
5 | B5 | – | 6.2e-10 M
6 | B6 | 4.2e-08 M | –
7 | B7 | – | 2.3e-09 M
8 | B8 | 1.1e-07 M | –
9 | B9 | – | 5.9e-10 M
10 | B10 | – | 2.4e-08 M
11 | B11 | 1.2e-09 M | –
12 | B12 | – | 2.5e-08 M
13 | B13 | – | 3.6e-08 M
14 | B14 | – | 3.7e-11 M
15 | B15 | – | 1.3e-08 M
16 | B16 | 9.9e-09 M | –
17 | B17 | – | 3.4e-11 M
18 | B18 | 3.5e-11 M | 2.6e-11 M
19 | B19 | – | 7.7e-11 M
20 | B20 | 9.5e-10 M | –
21 | B21 | – | 1.1e-07 M
22 | B22 | 7.2e-09 M | –
23 | B23 | 8.9e-10 M | –
